Experimental data taken from patent publication US20200207869A1.

Molecular target: VWF in the plasma of the mice (endogenous murine VWF) (murine) (UniProt Q8CIZ8)
Assay: sandwich ELISA of mouse plasma, anti-FVII capture, anti-VWF detection, n=4 mice

OD450 nm: 0.684 OD450 nm
B1: FVII-KB13-bv (protein)
chain: AGGVAKASGGETRDMPWKPGPHRVFVTQEEAHGVLHRRRRANAFLEELRPGSLERECKEEQCSFEEAREIFKDAERTKLFWISYSDGDQCASSPCQNGGSCKDQLQSYICFCLPAFEGRNCETHKDDQLICVNENGGCEQYCSDHTGTKRSCRCHEGYSLLADGVSCTPTVEYPCGKIPILEKRNASKPQGRIVGGKVCPKGECPQVLLLVNGAQLCGGTLINTIWVVSAAHCFDKIKNWRNLIAVLGEHDLSEHDGDEQSRRVAQVIIPSTYVPGTTNHDIALLRLHQPVVLTDHVVPLCLPERTFSERTLAFVRFSLVSGWGQLLDRGATALELMVLNVPRLMTQDCLQQSRKVGDSPNITEYMFCAGYSDGSKDSCKGDSGGPHATHYRGTWYLTGIVSWGQGCATVGHFGVYTRVSQYIEWLQKLMRSEPRPGVLLRAPFPLTPRGVRLGGGSGGGSGGGSGGGSQVQLVQSGGGLVQAGDSLRLSCAASGRTFIRYAMAWFRQAPGKEREFVAAIPQSGGRSYYADSVKGRFTISRDNAKNTVYLQMNSLKPEDTAVYSCAATSTYYGRSAYSSHSGGYDYWGQGTQVTVSSGGGSGGGSGGGSGGGSQVQLVQSGGGLVQAGDSLRLSCAASGRTFIRYAMAWFRQAPGKEREFVAAIPQSGGRSYYADSVKGRFTISRDNAKNTVYLQMNSLKPEDTAVYSCAATSTYYGRSAYSSHSGGYDYWGQGTQVTVSS
